From patent US20030054493A1 come the findings set out here.

In experiment [1] the target is Crotalus durissus terrificus (C.d.t.) venom. The experiment is described as follows: ELISA, venom-coated wells; dilution 1:25. On the technique in general: An ELISA detects its analyte on a solid surface through an enzyme-linked reagent.
The target is the same in experiment [2]. The experiment is described as follows: ELISA, venom-coated wells; dilution 1:125.
Experiment [3] shares this target. The experiment is described as follows: ELISA, venom-coated wells; dilution 1:625.
The target is the same in experiment [4]. The experiment is described as follows: ELISA, venom-coated wells; dilution 1:3125.
For experiment [5] the target is unchanged. In words: ELISA, venom-coated wells; dilution 1:62,500.
The target is the same in experiment [6]. The experiment is described as follows: ELISA, venom-coated wells; dilution 1:312,500.
For experiment [7] the target is unchanged. In words: ELISA, venom-coated wells (5 µg/ml); undiluted.
Experiment [8] has the same target. In words: ELISA, venom-coated wells; dilution printed 1.5.
The target is the same in experiment [9]. In words: ELISA, venom-coated wells (5 µg/ml); dilution 1:5.
Experiment [10] shares this target. In words: ELISA, venom-coated wells (5 µg/ml); dilution 1:25.
Experiment [11] shares this target. In words: ELISA, venom-coated wells (5 µg/ml); dilution 1:125.
Experiment [12] shares this target. The experiment is described as follows: ELISA, venom-coated wells (5 µg/ml); dilution 1:625.
Experiment [13] shares this target. The experiment is described as follows: ELISA, venom-coated wells (5 µg/ml); dilution 1:3125.

Some results are limits rather than exact numbers.

preimmune IgY (antibody): the ELISA absorbance in experiment [1] was 0.016 absorbance; in experiment [2], < 0 absorbance; in experiment [3], < 0 absorbance; in experiment [4] it was < 0 absorbance; in experiment [7] it was 0.003 absorbance; in experiment [8], < 0 absorbance. Moreover, the ELISA absorbance in experiment [9] was < 0 absorbance; in [10], 0 absorbance; in [11], 0.003 absorbance; in [12] it was 0 absorbance; in experiment [13] it was 0.002 absorbance. The results for the ELISA absorbance (absorbance (412 nm filter)) in experiment [5] and in [6] were 0.001 and 0.01, respectively.
